# Source: US7767415B2, “Compositions and methods for modifying blood cell carbohydrates” (Velico Medical, Inc., priority 2001, dated 2010)
# Read-outs that look alike come from different tables or passages of the source.
# B1: human α-N-acetylgalactosaminidase: human α-N-acetylgalactosaminidase (alpha-galactosidase B), isolated, cloned and expressed (protein, UniProt P17050 18-411, looked up)
# Alpha-N-acetylgalactosaminidas …: LDNGLLQTPPMGWLAWERFRCNINCDEDPKNCISEQLFMEMADRMAQDGWRDMGYTYLNIDDCWIGGRDASGRLMPDPKRFPHGIPFLADYVHSLGLKLGIYADMGNFTCMGYPGTTLDKVVQDAQTFAEWKVDMLKLDGCFSTPEERAQGYPKMAAALNATGRPIAFSCSWPAYEGGLPPRVNYSLLADICNLWRNYDDIQDSWWSVLSILNWFVEHQDILQPVAGPGHWNDPDMLLIGNFGLSLEQSRAQMALWTVLAAPLLMSTDLRTISAQNMDILQNPLMIKINQDPLGIQGRRIHKEKSLIEVYMRPLSNKASALVFFSCRTDMPYRYHSSLGQLNFTGSVIYEAQDVYSGDIISGLRDETNFTVIINPSGVVMWYLYPIKNLEMSQQ
# B2: Recombinant Chicken Liver α-N-acetylgalactosaminidase: Chicken liver α-N-acetylgalactosaminidase, recombinant, expressed in P. pastoris; prior-art enzyme for A cell conversion (protein, UniProt Q90744 1-405, looked up)
# Alpha-N-acetylgalactosaminidas …: LENGLARTPPMGWLAWERFRCNVNCREDPRQCISEMLFMEMADRIAEDGWRELGYKYINIDDCWAAKQRDAEGRLVPDPERFPRGIKALADYVHARGLKLDIYGDLGRLTCGGYPGTTLDRVEQDAQTFAEWGVDMLKLDGCYSSGKEQAQGYPQMARALNSTGRPIVYSCSWPAYQGGLPPKVNYTLLGEICNLWRNYDDIQDSWDSVLSIVDWFFTNQDVLQPFAGPGHWNDPDMLIIGNFGLSYEQSRSQMALWTIMAAPLLMSTDLRTISPSAKKILQNRLMIQINQDPLGIQGRRIIKEGSHIEVFLRPLSQAASALVFFSRRTDMPFRYTTSLAKLGFPMGAAYEVQDVYSGKIISGLKTGDNFTVIINPSGVVMWYLCPKALLIQQQAPGGPSRLPLL
# What was measured:
# [1] = tested on: E. coli expressed recombinant α-N-acetylgalactosaminidase (New England BioLabs, catalog no. P0734B, proprietary strain); test: Preliminary Km with tetrasaccharide AMC substrate (densitometric scans of substrate/product ratio); format: biochemical; details: assay unreliable at low concentrations, Km possibly even lower than 20 μM, read-out: Km for the blood group A oligosaccharide substrates
# Excerpt: (§1) The assay used for this determination involved densitometric scans of the substrate/product ratio using the tetrasaccharide AMC substrate (GalNAcα1-3(Fucα1-2)Galβ1-4GalNAc-AMC).
# [2] = tested on: Recombinant coffee bean (Coffea canephora) α-galactosidase; details: apparent; pH 5.5, 26° C.; Zhu et al. 1995; cited from earlier work
# [3] = tested on: Recombinant chicken liver α-N-acetylgalactosaminidase; details: apparent; pH 3.65, 37° C.; Zhu et al. 1996; cited from earlier work
# [4] = tested on: R. torgues (Ruminococcus torques) α-N-acetylgalactosaminidase, isolated to apparent homogeneity; details: Hoskins et al. 1997; cited from earlier work
# [5] = tested on: E. coli expressed recombinant α-N-acetylgalactosaminidase (New England BioLabs, catalog no. P0734B, proprietary strain); test: Apparent Km and Vmax with monosaccharide derivative (p-nitrophenol at 405 nm, Lineweaver-Burk), Table XI; format: biochemical; details: pH 7.0, 37° C.
# Description: Commercial Recombinant α-N-Acetylgalactosaminidase (New England Biolabs): • vii) 0.5 mM as a starting concentration of αGalNAc p-nitrophenyl monosaccharide derivative in a tube containing 0.05 M Sodium phosphate buffer pH 7.0 was sequentially diluted 2 fold by mixing it with an equal volume of buffer. […] of enzyme was added to each tube and incubated for 10 min at 37° C. The reaction was quenched by adding an equal volume of 0.2 M sodium borate buffer (pH 9.8). The amount of the liberated p-nitrophenol was determined by measuring the absorbance at 405 nm.
# [6] = Dean and Sweeley 1979; cited from earlier work
# [7] = Activity with blood group A tetrasaccharide AMC substrate (HPTLC); format: biochemical; details: for difference of specific activity, GalNAcα1-pNP versus A tetrasaccharide substrate: pH 3.65; for Specific activity with blood group A tetrasaccharide-AMC: pH 5.5
# A1 red blood cells = test: Enzymatic conversion of A1 red blood cells, hemagglutination typing; format: cell-based, human; details: A1 donors; chicken enzyme 200 U/ml, 50% hematocrit, 37° C., 4 hours (protocols B, C)
# Excerpt: (§2) It is evident from the data in Table XII that apparent removal of A antigens is achieved, when defined by one particular anti-blood group A specific monoclonal antibody that is not approved for blood typing procedures (DAKO). A large number of such antibodies exist and, due to specificity and low affinity binding, they are inappropriate for serological typing purposes. Development of monoclonal cocktails for ABO routine typing to substitute previously used polyclonal antibody reagents was a major achievement for the blood bank industry in 1990s. […] Details of the typing assay used in this example is as follows: • Approved typing reagents used in hemagglutination assays were murine monoclonal antibodies and plant lectins obtained from Ortho Clinical Diagnostics, Raritan, N.J.; Gamma Biologicals/Immucor, Norcross, Ga. Non-approved reagents included murine monoclonal anti-A antibody from Dako and a panel of monoclonal antibodies to blood group A variants produced by H. Clausen (Clausen et al., Proc. Natl. Acad. Sci. USA 82(4): 1199-203, 1985, Clausen et al., J Biol Chem. 261(3): 1380-7, 1986, Clausen et al., Biochemistry 25(22): 7075-85, 1986, Clausen et al., J Biol Chem. 262(29): 14228-34, 1987). Typing reagents were used according to the manufacturers recommendations and other monoclonal antibodies as determined by titrations. Hemagglutination Assay (Room Temperature) 1. […]
# [8] = Activity with repetitive A heptasaccharide AMC substrate (HPTLC); format: biochemical
# Description: FIG. 5b is an HPTLC analysis of five selected Streptomycete α-N-acetylgalactosaminidase activities with the blood group A tetrasaccharide (Panel B-1) and A heptasaccharide AMC (Panel B-2) substrate. Streptomycete strains identified by numbers as in Table VII. […] Reactions were incubated 180 min at 30° C., and 2.5 μl of the reaction mixture was spotted onto HPTLC and developed in CHCl3:methanol:H2O (60:35:8) and photographed. Migration of trisaccharide (H), and tetrasaccharide (A), heptasaccharide and hexasaccharide (H-A) AMC derivatives is indicated by arrows. NE, no enzyme control; rCHl-Az, recombinant Chicken liver A-zyme; Origin, sample application position. The appearance of a disaccharide AMC is due to contaminating α-fucosidase activity.
# Aliquots of 2.5-3.0 μl were taken at different time points (0′, 15′, 30′, 60′) to follow product development. Product development was analyzed by HPTLC in chloroform-methanol-water (vol/vol/vol: 60/35/8) and visualized by UV or orcinol staining.
# [9] = Activity with blood group A tetrasaccharide AMC substrate (HPTLC); format: biochemical
# Description: FIG. 10 illustrates the activity of E. coli expressed α-N-acetylgalactosaminidase with the blood group A tetrasaccharide AMC substrate at different pH. Assays were performed in reactions of 10 μl containing 1 nmole of α-tetra, 0.05 μg enzyme, and the buffer Na Citrate-NaPO4 at varying pH 2.6-8.0. Reactions were incubated 40 min at 26° C., and 3 μl samples analyzed by HPTLC. Panel A: HPTLC analysis; Panel B: Substrate cleavage quantified by scanning and plotted against pH.
# Assays with Derivatized oligosaccharide substrates (AMC, OGr) were performed by the following procedure: • iii) One (AMC) or 5 (OGr) nmol substrate in reaction mixtures of a total volume of 10 μl containing 50 mM sodium citrate (pH 6.0) was incubated at 26° C. Aliquots of 2.5-3.0 μl were taken at different time points (0′, 15′, 30′, 60′) to follow product development. Product development was analyzed by HPTLC in chloroform-methanol-water (vol/vol/vol: 60/35/8) and visualized by UV or orcinol staining. […]
# as §1
# [10] = cited from earlier work; for Specific activity with GalNAcα1-pNP: pH 3.65 (optimal pH)
# A2 red blood cells = test: Enzymatic conversion of A2 red blood cells, hemagglutination typing; format: cell-based, human; details: A2 donors; chicken enzyme 100-200 U/ml, protocols A-C (pH 7.4 or 5.5, 30-37° C., 180 min to 4 hours)
# Excerpt: as §2
# [11] = listed as chicken α-N-acetylgalactosaminidase
# [12] = listed as recombinant chicken α-N-acetylgalactosaminidase
molecule,measurement,setting,value
GalNAcα1-3(Fucα1-2)Galβ1-4GalNAc-AMC,Km,[1],~20 µM
"O=[N+]([O-])c1ccc(O[C@H]2O[C@H](CO)[C@H](O)[C@H](O)[C@H]2O)cc1 [Galα1-pNP, p-nitrophenyl α-galactoside]",Km,[2],363 µM
same,Vmax,[2],46.9 U/mg^1
"CC(=O)N[C@H]1[C@@H](Oc2ccc([N+](=O)[O-])cc2)O[C@H](CO)[C@H](O)[C@@H]1O [GalNAcα1-pNP, p-nitrophenyl-α-D-N-acetylgalactosaminopyranoside]",Km,[3],827 µM
same,Vmax,[3],60.9 U/mg^3
same,Km,[4],2000 to 8000 µM
same,Km,[5],10 to 50 µM
same,Vmax,[5],3.3 U/mg^3
B1,pH optimum,[6],3.5
B2,"difference of specific activity, GalNAcα1-pNP versus A tetrasaccharide substrate",[7]; [11],over 100 fold
same,"difference of specific activity, GalNAcα1-pNP versus A tetrasaccharide substrate",[7]; [12],166 fold
same,Specific activity with blood group A tetrasaccharide-AMC,[7]; [11],0.2 U/mg
same,Specific activity with blood group A tetrasaccharide-AMC,[7]; [12],0.2 U/mg
same,"Agglutination, Dolichos biflorus, post enzyme treatment",A1 red blood cells,0
same,Specific activity with repetitive A heptasaccharide-AMC,[8]; pH 3.65,0.5 U/mg
same,Specific activity with repetitive A heptasaccharide-AMC,[8]; pH 5.5,0.4 U/mg
same,specific activity with repetitive A type 3 AMC derivative (structure 6),[8]; pH not stated,approximately 0.3 U/mg
same,pH optimum with the blood group A tetrasaccharide AMC substrate,[9]; not shown,3.5-4.5
same,Specific activity with blood group A tetrasaccharide-AMC,[9]; pH 3.65,0.5 U/mg
same,Specific activity with blood group A tetrasaccharide-AMC,"[9]; pH 3.65, listed as chicken α-N-acetylgalactosaminidase",0.3 U/mg
same,Specific activity with blood group A tetrasaccharide-AMC,"[9]; pH 3.65, listed as recombinant chicken α-N-acetylgalactosaminidase",0.3 U/mg
same,Specific activity with blood group A tetrasaccharide-AMC,[9]; pH 5.5,0.4 U/mg
same,specific activity with A type 2 tetrasaccharide AMC derivative (structure 3),[9]; pH not stated,approximately 0.3 U/mg
same,specific activity using p-nitrophenyl αGalNAc as substrate,"[10]; literature values, pH not stated",51-56 U/mg
same,Specific activity with GalNAcα1-pNP,[10],50 U/mg^3
same,Specific activity with GalNAcα1-pNP,[10]; [11],approximately 50 U/mg
same,Specific activity with GalNAcα1-pNP,[10]; [12],approximately 50 U/mg
same,"Agglutination, Dolichos biflorus, post enzyme treatment",A2 red blood cells,0
